Measured values taken from PMC8458453, “Structural basis of human PDZD8–Rab7 interaction for the ER-late endosome tethering” (Scientific Reports, 2021).
Changes are numbered by the printed parent chain. Names and notes keep the numbering of the source.

Target: T1, human Rab7 Q67L (residues 2–195), GTP-loaded (human, UniProt P51149 2-195, Q67L)
T1 construct: Supplemented with 1 mM GTP; Mg2+ and GTP are seen in the structure; also called Rab7A; Rab7-GTP; source: E. coli BL21(DE3), purified (Ni-NTA, thrombin cleavage, SEC; same procedure as the PDZD8 CC)
Experiment: ITC; 1 mM MBP-PDZD8 CC in the syringe injected (2 μl × 25) into 0.1 mM Rab7 in the cell; 20 °C; 20 mM Tris-HCl pH 7.5, 150 mM NaCl; Rab7 Q67L loaded with 1 mM GTP, Rab7 T22N with 1 mM GDP; two-site model for wild type, independent (single-site) model for mutants
Details: both partners purified

T1 sequence (P51149 2-195 Q67L): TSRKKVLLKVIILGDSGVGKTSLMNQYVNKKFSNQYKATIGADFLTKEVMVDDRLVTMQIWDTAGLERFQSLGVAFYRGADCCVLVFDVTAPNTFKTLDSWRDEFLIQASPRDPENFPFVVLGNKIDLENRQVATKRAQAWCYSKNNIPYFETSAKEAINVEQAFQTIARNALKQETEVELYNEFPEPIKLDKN

B1: MBP-PDZD8 CC, residues 980–1123 (domain or fragment, human, UniProt Q8NEN9 980-1123, looked up)
chain: SDTEVCGPNSPSKRGNSTGIKLVRKEGGLDDSVFIAVKEIGRDLYRGLPTEERIQKLEFMLDKLQNEIDQELEHNNSLVREEKETTDTRKKSLLSAALAKSGERLQALTLLMIHYRAGIEDIETLESLSLDQHSKKISKYTDDT
notes: source: purified recombinant protein; not shown: His tag, N-terminal, kept; MBP, N-terminal, kept
binding result: binds

B2: MBP-PDZD8 CC A1086R (domain or fragment, human, UniProt Q8NEN9 994-1123, looked up)
chain: GNSTGIKLVRKEGGLDDSVFIAVKEIGRDLYRGLPTEERIQKLEFMLDKLQNEIDQELEHNNSLVREEKETTDTRKKSLLSAALAKSGERLQRLTLLMIHYRAGIEDIETLESLSLDQHSKKISKYTDDT
notes: also called PDZD8 A1086R; source: purified recombinant protein; not shown: His tag, N-terminal, kept; MBP, N-terminal, kept
Kd: 0.66 µM

B3: MBP-PDZD8 CC I1092E (domain or fragment, human, UniProt Q8NEN9 994-1123, looked up)
chain: B2 chain with R93A, I99E
notes: also called PDZD8 I1092E; source: purified recombinant protein; not shown: His tag, N-terminal, kept; MBP, N-terminal, kept
Kd: 9.2 µM
